Here are results for one protein from paper doi:10.1101/2023.05.02.539095 (bioRxiv, 2023).

This data set concerns the molecule itself. Put plainly: SEC-MALS.

The term stoichiometry N denotes the number of molecules, sites or subunits per partner or assembly.

B1: MSMEG_0317-His (wild type, made in E. coli) (natural protein)
chain: MNRAVALRIAACGLLGLGAALLIAALLLTTYTKGKIAKIPLDIDTSLVSDGTATAFDPDSLVAERFKIDRDVPVALQQQMSVEAPSNADVVTFQVGTTLRRTDRQQDAGLLLALVDTVTMNRNTAEAVSSENNPGGAVQKPRAIEDEKPPTNIALPHEGLTYRFPFDTEKKTYPFFDPIAQKAFDANYDGEEDVNGLTTYRFVQNVGYDADGKLADPIKYSSLYEDDADASVTARAEVWGVPGEPDESITMDRFYAASRTFWVDPVSGTIVKSEEHGYQYYAREALKPEVTYVDFKVTTNEESVESQVAAASDERDRIALWTRILPITFTALGLVSLVGGAVLGSFALRTESTLIDPGLDTADHGFFDTQGIQVPGAEAKTEKLPAQRPTDLPPDRPI
As to B1, the “stoichiometry N” value amounted to 2.
